Patent US20240117073A1, “METHODS OF TREATING NEOPLASTIC ASTROCYTOMA” (Ludwig Institute for Cancer Research Ltd., priority 2009, published 2024)
Several values for one entry are separate records, joined by “and”; a condition that tells them apart may be missing. Equal entries are not always repeated. Entries after “also recorded” stand apart in the source; their conditions may differ.

What was measured:
[1] = system: U87MG.DK brain xenografts; assay: systemic treatment of intracranial xenografts; design: species or system nude mice; conditions: mouse, in vivo
Protocol: U87MG.ΔEGFR cells (1×10^5) or 5×10^5 LN-Z308.ΔEGFR, A1207.ΔEGFR, U87MG, U87MG.DK, and U87MG.wtEGFR cells in 5 μl of PBS were implanted into the right corpus stratum of nude mice brains as described previously (Mishima et al. (2000) A peptide derived from the non-receptor binding region of urokinase plasminogen activator inhibits glioblastoma growth and angiogenesis in vivo in combination with cisplatin. Proc. Natl. Acad. Sci. U.S.A. 97, 8484-8489).

wtEGFR on A431 cells = target: T1, wtEGFR on A431 cells (Homo sapiens, UniProt P00533); assay: Scatchard analysis on A431 cells; format: binding
T1 construct: A431 cells are human squamous carcinoma cells and express high levels of wtEGFR; host or cells: A431 human squamous (epidermoid) carcinoma cells
Protocol: All binding assays were performed in 1% HSA/PBS on 1-2×10^6 live U87MG.Δ2-7 or A431 cells for 90 min at 4° C. with gentle rotation. A set concentration of 10 ng/ml ^125I-labeled antibody was used in the presence of increasing concentrations of the appropriate unlabeled antibody. Non-specific binding was determined in the presence of 10,000-fold excess of unlabeled antibody. […] After the incubation was completed, cells were washed and counted for bound ^125I-labeled antibody using a COBRA II gamma counter (Packard Instrument Company, Meriden, CT, USA).

[2] = target: T2, Peptide C: LEEKKGNYVVTDH(K-Biot)-OH (Homo sapiens, UniProt P00533, DELINS30-297G); assay: BIAcore, immobilized Peptide C; format: binding; conditions: mAbL8A4 even at 6.25 nM; mAb806 up to 100 nM (highest tested)
T2 construct: purchased Biosource, Camarillo, CA; host or cells: synthetic
Protocol: Peptide C was immobilized on a Streptavidin microsensor chip at a surface density of 350RU (+/−30RU). Serial dilutions of mAbs were tested for reactivity with the peptide. Blocking experiments using non-biotinylated peptide were performed to assess specificity.

U87MG.wtEGFR xenografts = assay: established xenograft model; format: in vivo, nude mice; conditions: day control animals were sacrificed; 1 mg injections
Protocol: Tumor cells (3×10^6) in […] of PBS were inoculated subcutaneously into both flanks of 4-6 week old female nude mice (Animal Research Centre, Western Australia, Australia). […] Treatment was continued for a total of 6 doses, 3 times per week for 2 weeks. In the established model, treatment was started when tumors had reached a mean volume of 65±6.42 mm^3 (U87MG.Δ2-7), 84±9.07 mm^3 (U87MG), 73±7.5 mm^3 (U87MG.wtEGFR) or 201±19.09 mm^3 (A431 tumors). Tumor volume in mm^3 was determined using the formula (length×width^2)/2, where length was the longest axis and width the measurement at right angles to the length (Clark et al. (2000) Therapeutic efficacy of anti-Lewis (y) humanized 3S 193 radioimmunotherapy in a breast cancer model: enhanced activity when combined with Taxol chemotherapy. Clin. Cancer Res. 6, 3621-3628). Data was expressed as mean tumor volume±S.E. for each treatment group. Statistical analysis was performed at given time points using Student's t-test. Animals were euthanized when the xenografts reached an approximate volume of 1.5 cm^3 and the tumors excised for histological examination. This research project was approved by the Animal Ethics Committee of the Austin and Repatriation Medical Centre. […]

de2-7 EGFR and wtEGFR = target: T3, de2-7 EGFR and wtEGFR (Homo sapiens, UniProt P00533, DELINS30-297G); assay: immunoprecipitation from 35S-labeled cells; format: binding
T3 construct: expressed in transfected cells; host or cells: NR6ΔEGFR and U87MG.ΔEGFR/U87MG.Δ2-7 (transfected ΔEGFR); U87MG.wtEGFR (transfected wtEGFR); U87MG and A431 (endogenous wtEGFR)
Protocol: Briefly, cells were labeled for 16 h with […] of Tran ^35S-Label (ICN Biomedicals, Irvine, CA) in DMEM without methionine/cysteine supplemented with 5% dialyzed FCS. After washing with PBS, cells were placed in lysis buffer (1% Triton X-100, 30 mM HEPES, 150 mM NaCl, 500 μM 4-(2-aminoethyl) benzenesulfonylfluoride (AEBSF), 150 nM aprotinin, 1 μM E-64 protease inhibitor, 0.5 mM EDTA, and 1 μM leupeptin, pH 7.4) for 1 h at 4° C. Lysates were clarified by centrifugation for 10 min at 12,000 g and then incubated with 5 μg of appropriate antibody for 30 min at 4° C. before the addition of Protein A-Sepharose. Immunoprecipitates were washed three times with lysis buffer, mixed with SDS sample buffer, separated by gel electrophoresis using a 4-20% Tris/glycine gel that was then dried, and exposed to X-ray film.

[3] = target: T4, EGFR extracted from DU145 cells (Homo sapiens, UniProt P00533); assay: immunoprecipitation and immunoblot; format: binding
T4 construct: endogenous in cells; host or cells: DU145
Protocol: Cells were lysed with lysis buffer (1% Triton X-IOO, 30 mM HEPES, 150 mM NaCl, […] 4-(2-aminoethyl) benzenesulfonylfluoride, 150 nM aprotinin, 1 mM E-64 protease inhibitor, 0.5 mM EDTA, and 1 mM leupeptin, pH 7.4) for 20 minutes, clarified by centrifugation at 14,000×g for 30 minutes, immunoprecipitated with the relevant antibodies at a final concentration of 5 μg/ml for 60 minutes and captured by Sepharose-A beads overnight. Samples were then eluted with 2× NuPAGE® SDS Sample Buffer (Invitrogen), resolved on NuPAGE® gels (either 3-8% or 4-12%), electro-transferred onto Immobilon®-P transfer membrane (Millipore) then probed with the relevant antibodies before detection by chemoluminescence radiography.
Clearly, mAb806 and mAb175 can recognize only a small proportion of the EGFR on cells in the presence of an autocrine stimulation loop.

A431 xenografts = assay: preventative xenograft model; format: in vivo, nude mice
Protocol: Tumor cells (3×10^6) in […] of PBS were inoculated subcutaneously into both flanks of 4-6 week old female nude mice (Animal Research Centre, Western Australia, Australia). […] Treatment was continued for a total of 6 doses, 3 times per week for 2 weeks. In the established model, treatment was started when tumors had reached a mean volume of 65±6.42 mm^3 (U87MG.Δ2-7), 84±9.07 mm^3 (U87MG), 73±7.5 mm^3 (U87MG.wtEGFR) or 201±19.09 mm^3 (A431 tumors). Tumor volume in mm^3 was determined using the formula (length×width^2)/2, where length was the longest axis and width the measurement at right angles to the length (Clark et al. (2000) Therapeutic efficacy of anti-Lewis (y) humanized 3S 193 radioimmunotherapy in a breast cancer model: enhanced activity when combined with Taxol chemotherapy. Clin. Cancer Res. 6, 3621-3628). Data was expressed as mean tumor volume±S.E. for each treatment group. Statistical analysis was performed at given time points using Student's t-test. Animals were euthanized when the xenografts reached an approximate volume of 1.5 cm^3 and the tumors excised for histological examination. This research project was approved by the Animal Ethics Committee of the Austin and Repatriation Medical Centre.
These cells contain an amplified EGFR gene and express approximately 2×10^6 receptors per cell. […]

A431 cells = assay: FACS binding to cell lines; format: cell-based, human
From the text: FACS data was obtained on a Coulter Epics Elite ESP by observing a minimum of 5,000 events and analyzed using EXPO (version 2) for Windows.
As described previously, A431 cells are human squamous carcinoma cells and express high levels of wtEGFR.
The estimates of antibody concentration determined for each sample by the OD Δ280 nm were utilised for FACS analyses with the adenocarcinoma cell line A431 cells (containing EGFR gene amplification). […] Control for secondary antibody alone was also included [Goat anti hu-IgG (Fc specific) FITC conjugated].

junction peptide = target: T5, junction peptide (Homo sapiens, UniProt P00533, DELINS30-297G); assay: dot-blot immune stain; format: binding
T5 construct: purchased Biosource, Camarillo, CA; host or cells: synthetic
Protocol: Dot-blot immune stain experiments were also performed. Serial dilutions of peptide were spotted in 0.5 μl onto a PVDF or nitrocellulose membranes. […] Control antibodies were also negative for peptide binding.

U87MG.de2-7 cells = assay: ADCC assay; format: cell-based, human; conditions: E:T ratio 50:1
Protocol: PBMCs were isolated from healthy volunteer donor blood. Heparinized whole blood was fractionated by density centrifugation on Ficoll-Hypaque (ICN Biomedical Inc., Ohio, USA). PBMC fractions was collected and washed three times with RPMI+1640 supplemented with 100 U/ml penicillin and 100 μg/ml streptomycin, 2 mM L-glutamine, containing 5% heat-inactivated FCS.
CDC and ADCC assays were performed by a modification of a previously published method (Nelson, D. L. et al. (1991) In: J. E. Colignan, A. M. Kruisbeek, D. D. Margulies, E. M. Shevach, and W. Strober (eds.), Current Protocols in Immunology, pp. 7.27.1. New York: Greene Publishing Wiley Interscience). Briefly, 5×10^6 target U87MG.de2-7 and A431cells were labeled with 50 μCi^51Cr (Geneworks, Adelaide, Australia) per 1×10^6 cells and incubated for 2 hr at 37° C. The cells were then washed three time with PBS (0.05M, pH 7.4) and a fourth wash with culture medium. […]
In the first assay, labelled target cells were plated with the effector cells in 96-well “U” bottom microplates (NUNC, Roskilde, Denmark) at effector/target (E:T) cell ratios of 50:1. […] In both assays, micotitre plates were incubated at 37° C. for 4 hours, then 50 μl supernatant was harvested from each well and released ^51Cr was determined by gamma counting (Cobra II automated Gamma Counter, Canberra Packard, Melbourne, Australia). […]

U87MG cells = assay: FACS binding to cell lines; format: cell-based, human
Protocol: Briefly, cells were labelled with the relevant antibody (10 μg/ml) followed by fluorescein-conjugated goat anti-mouse IgG (1:100 dilution; Calbiochem San Diego, CA, USA; Becton-Dickinson PharMingen, San Diego, CA, US) as described previously (Nishikawa et al., 1994). FACS data was obtained on a Coulter Epics Elite ESP by observing a minimum of 5,000 events and analyzed using EXPO (version 2) for Windows.
Stained cells were analyzed with a FACS Calibur™ using Cell Quest™ software (Becton-Dickinson PharMingen). […] Mouse IgG2a or IgG2b was used as an isotype control.
Cells (1 3 10 6) were incubated with 5 μg/ml of the appropriate antibody or an isotype-matched negative control in PBS containing 1% HSA for 30 min at 4° C. After three washes with PBS/1% HSA, cells were incubated an additional 30 min at 4° C. with FTTC-coupled goat anti-mouse antibody (1:100 dilution; Calbiochem, San Diego, CA). After three subsequent washes, cells were analyzed on an Epics Elite ESP (Beckman Coulter, Hialeah, FL) by observing a minimum of 20,000 events and analyzed using EXPO (version 2) for Windows.

B1: mAb806: murine monoclonal antibody recognizing de2-7 EGFR and amplified EGFR; VH SEQ ID NO:2, VL SEQ ID NO:4 (antibody, listed as Mus musculus, V domains shown)
VH: MRVLILLWLFTAFPGVLSDVQLQESGPSLVKPSQSLSLTCTVTGYSITSDFAWNWIRQFPGNKLEWMGYISYSGNTRYNPSLKSRISITRDTSKNQFFLQLNSVTIEDTATYYCVTAGRGFPYWGQGTLVTVSA
VL: MVSTAQFLAFLLLWFPGARCDILMTQSPSSMSVSLGDTVSITCHSSQDINSNIGWLQQRPGKSFKGLIYHGTNLDDEVPSRFSGSGSGADYSLTISSLESEDFADYYCVQYAQFPWTFGGGTKLEIKR
[1]
  effect on survival: did not extend survival
wtEGFR on A431 cells
  receptors (binding sites) per cell: 2.4×10^5 receptors per cell and 2.3×10^5 receptors per cell
wtEGFR on A431 cells; average of three experiments
  affinity: 9.5e+07 M⁻¹
[2]
  reactivity with Peptide C: did not show detectable specific reactivity
U87MG.wtEGFR xenografts
  mean tumor volume: 468±78.38 mm^3 and 500±80 mm^3
de2-7 EGFR and wtEGFR
  immunoprecipitated EGFR bands: immunoprecipitated the two de2-7 EGFR bands, the wtEGFR was completely absent; also recorded: immunoprecipitated a single band corresponding to the wtEGFR from both U87MG.wtEGFR and A431 cells
[3]
  immunoprecipitation of EGFR: immunoprecipitate a small proportion of the EGFR
A431 xenografts; 0.1 mg
  effect on xenograft growth: inhibited significantly
A431 xenografts; day 13, 1 mg injection
  mean tumor volume: 260±60.33 mm^3 and 260±60 mm^3
A431 cells
  FACS staining: Low, but highly reproducible, binding
Junction peptide
  binding to peptide on membranes: did not bind peptide
U87MG.de2-7 cells
  ADCC: lack of parental murine mAb806 immune effector function
U87MG cells
  FACS staining: binding levels similar to the control antibody; also recorded: not with U87MG cells
